We go through four molecules from patent US8524231.

Experiment [1] concerns the target biotinylated human IL-1Beta (human) (UniProt P01584). Briefly: competition ELISA: periplasmic Fab extract plus biotinylated IL-1Beta on coated mouse mAb (competitor); reduced signal means competition. Background: An ELISA detects its analyte on a solid surface through an enzyme-linked reagent.
For experiment [2] the target is unchanged. Briefly: ELISA based competition assay against the antagonistic reference mouse mAb (competitor).
Experiment [3] shares this target. Kind of experiment: cell-based or functional assay.

Where a chain is given by its changes, count along the chain named.

biotinylated human IL-1Beta (human), sequence (P01584 117-269 limits assumed): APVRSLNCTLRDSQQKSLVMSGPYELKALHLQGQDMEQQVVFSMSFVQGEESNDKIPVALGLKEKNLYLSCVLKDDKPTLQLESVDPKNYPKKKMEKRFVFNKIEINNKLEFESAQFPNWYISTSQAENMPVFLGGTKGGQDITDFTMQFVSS

B1: antagonistic Fab 1A1 (Fab, part only; not given: lambda light chain, constant domains, V domains shown, not shown: a dimerising Fc or GST)
VH: EVQLVESGGGLVQPGGSLRLSCAASGFTFDDYAMSWVRQAPGKGLEWVSTISWNGGATYYAESMKGRFTISRDNAKNTLYLQMNSLKSEDTAVYYCAKPYYSDYVGVEYDYWGQGTQVTVSS
As for B1, the signal (OD) in the competition assay in experiment [1] came out at 0.205 OD.

B2: antagonistic Fab 1C3 (Fab, part only; not given: lambda light chain, constant domains, V domains shown, not shown: a dimerising Fc or GST)
VH: EVQLVESGGGLVQPGGSLRLSCAASGFTFSSYWMYWVRQAPGKGLEWVSAINTGGGRTYYADSVKGRFTISRDNAKNTLYLQMNSLKSEDTAVYYCAKGTSADGSSWYVPADPYDYWGQGTQVTVSS
As to B2, the concentration at which competition is seen in experiment [2] is greater than 50 µg/mL. For the same molecule, the signal (OD) in the competition assay in experiment [1] is 0.386 OD. Further, in experiment [3], the IC50 in the bioassay was 3 µg/mL.

B3: antagonistic Fab 1B3 (Fab, part only; not given: lambda light chain, constant domains, V domains shown, not shown: a dimerising Fc or GST)
VH: EVQLVQSGAELRNPGASVKVSCKASGYTFTSYYIDWVRQAPGQGLEWMGRIDPEDGGTKYAQKFQGRVTFTADTSTSTAYVELSSLRSEDTAVYYCARSGRYELDYWGQGTQVTVSS
For B3, the signal (OD) in the competition assay in experiment [1] is 0.444 OD.

B4: Fab 1G1 (clone related to 1B3) (Fab, part only; not given: light chain, V domains shown, part only)
VH: B3 VH with I34T, G57D, S84T, A97L, R101A
On to B4, for which the signal (OD) in the competition assay in experiment [1] is 0.498 OD.
